Reference: publication PMC11417369, “DNA sequence and chromatin differentiate sequence-specific transcription factor binding in the human malaria parasite Plasmodium falciparum”

T1: AP2-HC D1 (Plasmodium falciparum, UniProt Q8IKR9 1316-1374)
T1 sequence: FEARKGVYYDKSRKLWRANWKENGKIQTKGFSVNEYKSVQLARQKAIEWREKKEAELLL

B1: CACACA_site8007 (dsDNA)
DNA 1: TTTATTTTATCATTTGCACACGCACCCCCACATAAA
DNA 2: TTTATGTGGGGGTGCGTGTGCAAATGATAAAATAAA
B2: CACACA_site6815 (dsDNA)
DNA 1: TAAGAGTAGTTATATACACACATGTATATTATAGTT
DNA 2: AACTATAATATACATGTGTGTATATAACTACTCTTA
B3: CACACA_site9021 (dsDNA)
DNA 1: ATTTCGTAATTTATATCACACACATATATATATAAT
DNA 2: ATTATATATATATGTGTGTGATATAAATTACGAAAT
B4: CACACA_site2516 (dsDNA)
DNA 1: AAAAAAAATGATAATATACACACTTATGGGAGAGCG
DNA 2: CGCTCTCCCATAAGTGTGTATATTATCATTTTTTTT
B5: CACACA_site2909 (dsDNA)
DNA 1: TTCTTTTTCCAATTTGCACACCACAAAATTATATAT
DNA 2: ATATATAATTTTGTGGTGTGCAAATTGGAAAAAGAA
B6: CACACA_site8531 (dsDNA)
DNA 1: ATTTATAATTTTTGAGCACACACAAGCATATATATA
DNA 2: TATATATATGCTTGTGTGTGCTCAAAAATTATAAAT
B7: CACACA_site8569 (dsDNA)
DNA 1: CTTTAATATTTTATTTCACACACATAAATGCCCCAA
DNA 2: TTGGGGCATTTATGTGTGTGAAATAAAATATTAAAG
B8: CACACA_site3027 (dsDNA)
DNA 1: AAGTTTATTTGTTGCACACATATAAGTAGAGAAAAT
DNA 2: ATTTTCTCTACTTATATGTGTGCAACAAATAAACTT
B9: CACACA_site6743 (dsDNA)
DNA 1: AAGAAGCATAAATGTACACACATATTTATATATCAA
DNA 2: TTGATATATAAATATGTGTGTACATTTATGCTTCTT
B10: CACACA_site6369 (dsDNA)
DNA 1: ATAAATAAGATATATACACACATATCTATACATATT
DNA 2: AATATGTATAGATATGTGTGTATATATCTTATTTAT
B11: CACACA_site2016 (dsDNA)
DNA 1: CCAACATATATTATCACACACATATATATATATATA
DNA 2: TATATATATATATATGTGTGTGATAATATATGTTGG
B12: CACACA_site7038 (dsDNA)
DNA 1: ACAACATATGTTATCACACACATATAAATATAAATA
DNA 2: TATTTATATTTATATGTGTGTGATAACATATGTTGT
B13: CACACA_site1704 (dsDNA)
DNA 1: ACCTCATAATATTTAACACACAAAATTATATGTATG
DNA 2: CATACATATAATTTTGTGTGTTAAATATTATGAGGT
B14: CACACA_site762 (dsDNA)
DNA 1: ATTTTTTTATTTTGTGCACACACATAAAAATATATA
DNA 2: TATATATTTTTATGTGTGTGCACAAAATAAAAAAAT
B15: CACACA_site806 (dsDNA)
DNA 1: ATTTAAATAAGATATACACACAAGTAGAAGACTATG
DNA 2: CATAGTCTTCTACTTGTGTGTATATCTTATTTAAAT
B16: CACACA_site2466 (dsDNA)
DNA 1: TACCTAATATGTTATACACACATTATGAGTACATAT
DNA 2: ATATGTACTCATAATGTGTGTATAACATATTAGGTA
B17: CACACA_site7206 (dsDNA)
DNA 1: TACCTAATATGTTATACACACATTATAAGTACATAT
DNA 2: ATATGTACTTATAATGTGTGTATAACATATTAGGTA
B18: CACACA_site1955 (dsDNA)
DNA 1: AATGAATGTAAGAAAATACACACTAGTATAGTAACA
DNA 2: TGTTACTATACTAGTGTGTATTTTCTTACATTCATT
B19: CACACA_site1882 (dsDNA)
DNA 1: ATATAGATCTACACTGCACACATTTTTAACACTGCT
DNA 2: AGCAGTGTTAAAAATGTGTGCAGTGTAGATCTATAT
B20: CACACA_site1808 (dsDNA)
DNA 1: ATAAATATTAAAAGTACACACAGATACACTAATTAT
DNA 2: ATAATTAGTGTATCTGTGTGTACTTTTAATATTTAT
B21: CACACA_site8037 (dsDNA)
DNA 1: TAAAAGAAATAAGGTGCACACATATACATATATATA
DNA 2: TATATATATGTATATGTGTGCACCTTATTTCTTTTA
B22: CACACA_site3596 (dsDNA)
DNA 1: AAATTCAAACAAATTACACACATTTTTTTTTAATTT
DNA 2: AAATTAAAAAAAAATGTGTGTAATTTGTTTGAATTT
B23: CACACA_site884 (dsDNA)
DNA 1: ATGTGGAAATAGAGCACACATATATATAATATATAT
DNA 2: ATATATATTATATATATGTGTGCTCTATTTCCACAT
B24: CACACA_site315 (dsDNA)
DNA 1: ACCAATAATATACATACACACATAAAGGTTTATATA
DNA 2: TATATAAACCTTTATGTGTGTATGTATATTATTGGT
B25: CACACA_site4030 (dsDNA)
DNA 1: AAGGAAATATAATATACACACATAAGTGTACTTATA
DNA 2: TATAAGTACACTTATGTGTGTATATTATATTTCCTT
B26: CACACA_site1591 (dsDNA)
DNA 1: TTAGCAACTATTACTACACACATTTGTATATAATTT
DNA 2: AAATTATATACAAATGTGTGTAGTAATAGTTGCTAA
B27: CACACA_site7113 (dsDNA)
DNA 1: TACGTTCTGATATATACACACCTGGTATTAATTATG
DNA 2: CATAATTAATACCAGGTGTGTATATATCAGAACGTA
B28: CACACA_site7599 (dsDNA)
DNA 1: AGCATTTTAAGTTATACACACATTTTGAATCTATAT
DNA 2: ATATAGATTCAAAATGTGTGTATAACTTAAAATGCT
B29: CACACA_site1421 (dsDNA)
DNA 1: AAAAGTAACAAAGCTACACACATTTAAATAAACATA
DNA 2: TATGTTTATTTAAATGTGTGTAGCTTTGTTACTTTT
B30: CACACA_site8 (dsDNA)
DNA 1: TTTATAATTTATATCACACACATATATATATAGTAA
DNA 2: TTACTATATATATATGTGTGTGATATAAATTATAAA
B31: CACACA_site5129 (dsDNA)
DNA 1: TATAAATACATACGTACACACAAATATTAAAATATA
DNA 2: TATATTTTAATATTTGTGTGTACGTATGTATTTATA
B32: CACACA_site2473 (dsDNA)
DNA 1: GTTATTGTAAAAAGATTACACACGTTCTATATACTT
DNA 2: AAGTATATAGAACGTGTGTAATCTTTTTACAATAAC

These binders were tested against T1, AP2-HC D1 (assay: gcPBM; about 25 ug protein; PBS, 1% milk, 0.2 mg/ml BSA, salmon testes DNA, 0.03% Triton X-100). Conditions: tags: N-terminal GST (pGEX-4T-1), kept; label: surface-attached array probe.
For B1, the binding signal was 10 ln median PBM intensity, better of two orientations. B2 was tested, and the binding signal was 9.9 ln median PBM intensity, better of two orientations. With B3 the binding signal was 9.99 ln median PBM intensity, better of two orientations. In the case of B4, the binding signal is reported as 9.94 ln median PBM intensity, better of two orientations. For B5, the binding signal was 10 ln median PBM intensity, better of two orientations. With B6 the binding signal was 9.85 ln median PBM intensity, better of two orientations. In the case of B7, the binding signal is reported as 9.84 ln median PBM intensity, better of two orientations. B8 was tested, and the binding signal was 9.88 ln median PBM intensity, better of two orientations. For B9, the binding signal was 10.1 ln median PBM intensity, better of two orientations. With B10 the binding signal was 9.9 ln median PBM intensity, better of two orientations. For B11, the binding signal was 9.91 ln median PBM intensity, better of two orientations. B12 was tested, and the binding signal was 9.96 ln median PBM intensity, better of two orientations. B13 was tested, and the binding signal was 9.87 ln median PBM intensity, better of two orientations. B14 was tested, and the binding signal was 9.86 ln median PBM intensity, better of two orientations. B15 was tested, and the binding signal was 9.85 ln median PBM intensity, better of two orientations. B16 was tested, and the binding signal was 9.88 ln median PBM intensity, better of two orientations. B17 was tested, and the binding signal was 9.98 ln median PBM intensity, better of two orientations. For B18, the binding signal was 9.93 ln median PBM intensity, better of two orientations. B19 was tested, and the binding signal was 10 ln median PBM intensity, better of two orientations. B20 was tested, and the binding signal was 10 ln median PBM intensity, better of two orientations. In the case of B21, the binding signal is reported as 9.97 ln median PBM intensity, better of two orientations. In the case of B22, the binding signal is reported as 9.94 ln median PBM intensity, better of two orientations. In the case of B23, the binding signal is reported as 9.92 ln median PBM intensity, better of two orientations. With B24 the binding signal was 9.89 ln median PBM intensity, better of two orientations. B25 was tested, and the binding signal was 9.82 ln median PBM intensity, better of two orientations. B26 was tested, and the binding signal was 9.95 ln median PBM intensity, better of two orientations. B27 was tested, and the binding signal was 10 ln median PBM intensity, better of two orientations. With B28 the binding signal was 9.87 ln median PBM intensity, better of two orientations. In the case of B29, the binding signal is reported as 9.84 ln median PBM intensity, better of two orientations. With B30 the binding signal was 9.83 ln median PBM intensity, better of two orientations. In the case of B31, the binding signal is reported as 9.91 ln median PBM intensity, better of two orientations. B32 was tested, and the binding signal was 9.97 ln median PBM intensity, better of two orientations.
